The labels stand for the following.
B1: M-box (dsDNA)
DNA 1: GAGATCATGTGTTGAC
DNA 2: GTCAACACATGATCTC
B2: E-box (dsDNA)
DNA 1: GAGACCACGTGTTGAC
DNA 2: GTCAACACGTGGTCTC
B3: CLEAR-box (FA) (dsDNA)
DNA 1: GAGATCACGTGATGAC
DNA 2: GTCATCACGTGATCTC

These results are taken from publication PMC6355916, “MITF has a central role in regulating starvation-induced autophagy in melanoma”.

The target of the series is MITF (UniProt Q08874 287-403). The series is described as follows: fluorescence anisotropy; FA: 0.5 nM dsDNA, 10 mM Tris/HCl pH 7.5, 300 mM NaCl, 0.01% Triton X-100, 0.1 mg/mL BSA, 25 °C, 5 min; fit one MITF dimer per dsDNA. Crystals: 0.9 M sodium malonate pH 5.5. As to conditions: protein: recombinant; chain copies: 2; label: 3' fluorescein on strand 1; blunt. For orientation: In fluorescence polarisation assays a small probe gives low polarisation when free and higher when bound to something large.
Chain of MITF (Q08874 287-403): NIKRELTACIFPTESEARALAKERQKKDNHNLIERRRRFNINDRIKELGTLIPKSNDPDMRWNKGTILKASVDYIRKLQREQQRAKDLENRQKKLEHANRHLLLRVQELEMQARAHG
One may read the Kd as a measure of binding affinity in units of concentration. On to B1, for which the dissociation constant Kd stood at 2.6 ± 0.4 nM.
Next, B2: 1.5 ± 0.3 nM; B3: 0.9 ± 0.3 nM.
